Experimental data published in the DeepSol protein solubility set.

Test: soluble on expression in E. coli; label from the status in PepcDB or PDB records

Row | Sequence | soluble on expression in E. coli
1 | MGSDKIHHHHHHMYEDYYRFSAKPFQLNPDPRFFYGSKGHKRAMAYLDYGLSLGEGFIVITGEVGAGKTTLVRNLFRQLEAHNLVAAQLVSTQLDAEDTLRSVAASFGLEHEGLTKSALLKNLESFLAAAARQGKRALLVVDEAQNLTPRAVEELRMLSNFQNDERSLIQTFLLGQPEFRGILQSPDMQQLRQRVVASYHLGPLDADETRGYIEHRLRTVGWQGMPGFDDDAFAALHRFSGGIPRRLNTTCDRLLLFGFLEEKRHFGEAEVDEVIADLRSEVAHQDFDRGAKPDARAADAFYAEDGGRLAQRIEQLERSVNRILPIVRKILYTVSEREAANDDTPQGPHDPAR | not soluble
2 | MAAAVRSVKGLVAVITGGASGLGLSTAKRLVGQGATAVLLDVPNSEGETEAKKLGGNCIFAPANVTSEKEVQAALTLAKEKFGRIDVAVNCAGIAVAIKTYHEKKNQVHTLEDFQRVINVNLIGTFNVIRLVAGVMGQNEPDQGGQRGVIINTASVAAFEGQVGQAAYSASKGGIVGMTLPIARDLAPIGIRVVTIAPGLFATPLLTTLPDTVRNFLASQVPFPSRLGDPAEYAHLVQMVIENPFLNGEVIRLDGAIRMQP | soluble
3 | GPGSMDSINSVTFEWVRAGPAYTLDGPHVYHSGCLGSYQPAIGGLEMPAGHGKYFYEIQTSDTRCKVGVCTEDAFLSNVNLGDVELHAAQPSSSLNSRLSEANCCLFNCLTCAVEVNGVEVRSLWRLLVPSAGARFGFLVNTDEGAVQLYVNGEYQGLIADTATGFKGKKLRPCIALDAPPTCGAGAEANKSSASVVPPRKIIASTA | not soluble
4 | MIKRPHVMQDSIQDCGVACIEMICKFYNINIDRRYIQEETGYGMIGISLKAMEKFFSKVDANPEIVNISKINRLNKENREMINNSLPAIVFLEEEEIINHFVVIWHIGKKRILVSDPTHTKKEWINNKHFEKRAISYLFVEKPKNI | not soluble
5 | AIAPSRQLEDPGAGTPSPVRLHALAGFQQRALCHALTFPSLQRLVYSMCSLCQEENEDMVPDALQQNPGAFRLAPALPARPHRGLSTFPGAEHCLRASPKTTLSGGFFVAVIERVEMPT | soluble
6 | MGSDKIHHHHHHMGAGELLQDWRVHALRIEDEVSRVVIGQPQTIRLITVALFARGHVLLEGGVGVGKTTVLRAFARVVGGEFERVEGTIDLMPGDLVYHTYVDAEGRPRIDPGPLLRHGERLTTFFFNEINRARPQVQSLLLRAMAERSVWAFDREYRFPHMTVFADRNKVEKEETFELASAARDRFLFELGMPTPTEPDVRRSLVFDAAFHDVDSLLARLPPAIVQWEQLNQVGAAIQESVQSSETIERYVLDIWQATETPQRFGIALDGVDMDRLILAGASPRGMSALLRAARVVAWLAGRSHLVPEDIHAVLMPALGHRVFFTPIYELRRQELAEALMTQIMNRLAVP | not soluble
7 | MGSDKIHHHHHHMKQDTIHINGLSIGYHSKSSTKLVAKGIHSTIYSGELTCLLGANGVGKSTLLRTLSAFQPKLDGEILVLGKDIDTYSDKELSTTIGVVLTDKCEIRNMLVRELVGMGRSPYTGFWGKLSKDDKRIVEESIALVRIEELASRMVHTLSDGERQKVMIAKALAQETPVIYLDEPTAFLDFPSKVEIMQLLHHLTRKTNKTIFMSTHDLELALQISDKIWLMDKANGISTGTPEDLALSGHLSNFFARKGIVFDKDTGLFRIDNQFSRQIRLVGHGQKYAMVRKGLQRNGILANREVESNIWIETGDLKTTHFIIHETSGGTYITQTIEELLAYFDTEKS | not soluble
8 | MPILQPKLMKQLMKFAIFGNTYQPKKSLHALRLFELLKKQGAEICMCREFYQFLTADLKMEVPVDALLEGNDFTADMVISIGGDGTFLKAARRVGRKQIPILGINTGRLGFLADVSPEEMEVTFEEIQAGRYSVEERSVLQLICNDRNLQESPYALNEIAVLKRDSSSMISIRTAINGAYLNTYQADGLVIATPTGSTAYSLSVGGPIIVPHSNTIAITPVAPHSLNVRPIVIRDDWEITLDVESRSHNFLVAIDGSSETCKETTQLTIRRADYSIKVVKRFNHIFFDTLRSKMMWGADGRRLEHHHHHH | soluble
9 | MAGFFNKLTGFFTISRQHNPPFEAASKSRRMGGFDPAKKHINKAIEECGDTIVARSRWLYDNESLYGSATEEWVSAAVSDGIKPYPRIEGFQEEKKKLLDLWWQWVDEADYDEDANFYGLQATIAREVFLTGECFVRLHYVDLYGRSGVPFQLQIYPTEMLDLTYNGPAETEGNYIRMGIEFNASGKRVAYHFWEHHPYDDCPANRAFKSQDRIRVPAEMVLHIKERRIAGQLRGSPKITRSMTKIFQLESYDDAELDRKRTAALFAVFITGKESHDAALEENREQTRLPKKPEEAADVDKIYPGSVNMVDGEKQITFSTPVEVGGSYEAFQFRNILKICSALNMPYAVVTGDVTRGNFSNVRTSIIQFRRHVKQWREHIIAFQFNRIVWERFVEMAVLSGRVHLPGWEENPLPWLQCESFAPPLEMIDPNKDISAEKEEIRAGLKTRRMALAERGFDIDSIHAELEEEHTDARARGLSFDTDMAASSGDNQIIDTTDSDPSETYESNQGSEAHKNGE | not soluble
10 | SLALSPGNLQKTAAGPDGQPQLAEKAPEKAQVDVPAAGDTAGLQPQSGRSGANINRATLPDGNVVSVYSPRPRDSDGPVLMSGQTYGQDPRMATRPNEELLEETAFGQLPVVGADGLRPMEQYARPWSGARGTRVAIVVGGLGLSQTGSQKAIRDLPPEVTLGFAASGNSLQRWMQDARREGHEILLQIPLEPFGYPGTNPGPDTLLAGDPAKVNIDRLHRSMAKITNYTGVMNYLGGRFLAEQSALEPVMRDIGKRGLLFLDDGSSAQSLSGGIAKAISAPQGFADVLLDGEVTEASILRKLDDLERIARRNGQAIGVASAFDESIAAISKWSREAGGRGIEIVGVSALVSGQAGQ | soluble
11 | MTCFKIRLSKQPLKGRTMNKPFITQAQLALYKYQPSSKYYGKTMAYTFASELLDYSKVNKFIIHEEIQCFLNRRISNNIWKIYFSDESVAYIKILELQDDYSRGIEIKTFDFNPNVGDVFG | not soluble
12 | MSLAQGIIENHLSKRSALLEQEKTSRHDYAFKQSMSPVAKTAAKVLADIRKKELKSIWSPTTTSNEKRDLKDVTFPGMSFTLSRDRMQKTALWKIVSAMPKGCLLHAHMEAMIDIDWMIEQAIELPGYYISSPVPLCPRTGSAGKWSEPFQFSYRPRLGSGANARNGSEPEISIWQAGYTPGRLVPVAAAAKMYPGGVEAFKAWAVSRMTINEEEALEHHHGIDDVWDKFRSCFLAIGGLFFTEPIFRRCIPRLLQQLHDDGIKYVELRLAPNPFYREGSNEAEPDFLYFLQCFQEEVDAYMSSPTGRGFWGAKIIWTAIRSFPDDLIKESMIHCLNSKKAYPSVITGFDFVGQEDAGRPLVDLLPLCKWFQQQCADEQLQIPFFLHAGECLGDGNDTDSNLVDAILLNSRRIGHAFSLYKHPLLIDLVKDKNILIEMCPISHEVLRLTSNILMHPMPALQARGVAVSLNNDDPAVLGHGKNGLSHDFYQVTAAFENTGLAGLATMAEDSIRWAAFEDETDSEWLQGIDGKGNGLKASRLAEWRTAFDEWCAWVVQEFGAESQIEGHHHHHH | soluble
13 | MEEGIKMGTKLTSLFKEGEKYQINTKYKELPIKTNLKLLWIDENMKLLGFSIGACVFKGAFTPGTEVYIKINGKYAYGKVFSCSNELVIEFKEIRKEPEFIRRRTVRVEPDPANPVVVELKVDSYSIKTKAKDISETGVGVILEKDKPESAEVIDIIQKNPNSWFDLYVHLPKHGTAHAKGRVRNLSIEEEGIYIRIGFEAEYSKEDREKVRRYVFERQQEIIKSLKML | not soluble
14 | MRASEVLQKCLPNSLSGMHALRERALLHAVEALLHGRRLTLMDIARSWPSALRVRAPLKAVDRLLSNRNLQVERSVIDHEMAHWLLRGAQPVIVIDWSDLKPDKSWCLLRAAVPVGGRTLTLLDMVVPGKQQGLEHHHHHH | soluble
15 | MGSDKIHHHHHHMETLISGKNLKAYYVLDLWGSKKVVKAVDNVSLDILPNEIYGIAGESGCGKSTLLKALLALLDPPLRLMDGELLYNIEGRPTNVTLLKSETIRKLRWSFISYIPQGSMHVLNPVKRVRDTFIEILSSHVKKQTKEFLDLAVQHLKDLGLPERVLNMFPHQLSGGMRQRVTIALATVLKPRVIFADEPTTALDVVAQRAVMQLIRKIQNDLKNTVVLVTHDMGVHAQITTRMAIMYAGKIVEEGPTLEIFKNPLHPYTRYLIQSLPAIGDKKLRSGIPGSPPSLVAPPPGCRFHPRCPHASQRCREEEPLLKEIKPGHKVACFLMEG | not soluble
16 | MPAHRSDPTSSVIELNDVVFCWPGASSPTLDIAHLQIARGEHLFVKGPSGCGKSTLLSLLTGINTATQGVVSLLGSDLSRLSASQRDRFRADHIGYIFQQFNLLPYLSVLDNVTLPCHFSALRKQQVDGPLSHKAQSLLERLHLPSALLNKPVTELSIGQQQRVAAARALMGEPQLIIADEPTSALDYDNREAFIALLREEAERVGSTLVFVSHDPTLEKLFERSVHLPTLNRAGGWQ | not soluble
17 | MAHHHHHHMKPYVWPTSDEAPPPSGRRTFPRQFQVNHGTLNLFSPAVPESQQCNTRAAAGSFSITGQRGILHQRNHNKESTATREFPVNGLRRVSAPQRSETPHGIRHIRDAAGAQQHVQVVNITDAYKDPMQMGPRRTGVKCLPQKSESDDVSVALSFAGSRQQLSARVLAAPVGKPSRPSLYPIDYSDQERFAQAVRDHAQKRTRGLAEFYVQLVRDTVGSVTSSTPKPAIVPWSLDQEPTRRVLTLGRCRDQLVALTAMPISLSDLALLLWGAGNGEVANSDSLTSDCDKDASLPLNCRPVPFCDFAAAFGQNSSDVRLARMKV | not soluble
18 | MLPETDLRRVAAAAAAMHRVAEIRRTRVSGRMDNHERRVGTEWVVTLQGADFPVTIAADHDGSTVSFDDGSSMRVTSDWTPLEHHHHHH | not soluble
19 | MASDNLSAVLYKQNDLRLEQRPIPEPKEDEVLLQMAYVGICGSDVHYYEHGRIADFIVKDPMVIGHEASGTVVKVGKNVKHLKKGDRVAVEPGVPCRRCQFCKEGKYNLCPDLTFCATPPDDGNLARYYVHAADFCHKLPDNVSLEEGALLEPLSVGVHACRRAGVQLGTTVLVIGAGPIGLVSVLAAKAYGAFVVCTARSPRRLEVAKNCGADVTLVVDPAKEEESSIIERIRSAIGDLPNVTIDCSGNEKCITIGINITRTGGTLMLVGMGSQMVTVPLVNACAREIDIKSVFRYCNDYPIALEMVASGRCNVKQLVTHSFKLEQTVDAFEAARKKADNTIKVMISCRQG | soluble
20 | MTTVSVQIPAGWPATEERARAVQDELRARVVLDEPGPPPGTGRVTGVDVAYDDERDVVAAAAVVLDAGTLAVVAEATAVGRISFPYVPGLLAFREIPTVLAALEALPCPPGLVVCDGYGLAHPRRFGLASHLGVLTGLPTIGVAKNPFTFTHDDPDTPRGSTSPLLAGAEEVGRAVRTRDGVKPVFVSVGHRVGLGNACAHTLALTPAYRLPETTRRADALCRAALRDAAYRALEHHHHHH | not soluble
21 | MTLTASSSSRAVTNSPVVVALDYHNRDDALAFVDKIDPRDCRLKVGKEMFTLFGPQFVRELQQRGFDIFLDLKFHDIPNTAAHAVAAAADLGVWMVNVHASGGARMMTAAREALVPFGKDAPLLIAVTVLTSMEASDLVDLGMTLSPADYAERLAALTQKCGLDGVVCSAQEAVRFKQVFGQEFKLVTPGIRPQGSEAGDQRRIMTPEQALSAGVDYMVIGRPVTQSVDPAQTLKAINASLQRSA | soluble
22 | MGLMKFQLFIQPKLDVLQGNIVEYEILLRDDSAVPRFPLSELEAVLADEELYLAFSEWFSEAFLDVLKKYPNDRFAINIAPQQLFYIETLHWLDKLKSESHRITVEMTEDIFDVPGHKRHLNANDKNAFILNKIKVIHGLGYHIAIDDVSCGLNSLERVMSYLPYIIEIKFSLIHFKNIPLEDLLLFIKAWANFAQKNKLDFVVEGIETKETMTLLESHGVSIFQGYLVNKPFPV | soluble
